Patent publication US20210032299A1 (Eli Lilly, published 2021)
Starred links: 1 amine or outer side, 2 acyl side, 3 side chain; linkers in the order of their positions; H or OH if unused. Non-standard residues stand in square brackets, D forms with d. Groups on a side chain read outwards from the residue. No end group written: not given here. *: point of attachment. C20 diacid = O=C(O)CCCCCCCCCCCCCCCCCCC(=O)*; γGlu = O=C(O)[C@H](CCC(=O)[*:2])N[*:1]; 4Pal = N[C@@H](Cc1ccncc1)C(=O)O; αMeL = CC(C)C[C@](C)(N)C(=O)O; AEEA = NCCOCCOCC(=O)O; Aib = CC(C)(N)C(=O)O

T1: human glucose-dependent insulinotropic polypeptide (GIP) receptor (human, UniProt P48546 22-466)
T1 construct: whole, on cells; Assayed as crude membranes of stably transfected CHO cells; also called hGIPR; human GIP receptor
T1 sequence (looked up): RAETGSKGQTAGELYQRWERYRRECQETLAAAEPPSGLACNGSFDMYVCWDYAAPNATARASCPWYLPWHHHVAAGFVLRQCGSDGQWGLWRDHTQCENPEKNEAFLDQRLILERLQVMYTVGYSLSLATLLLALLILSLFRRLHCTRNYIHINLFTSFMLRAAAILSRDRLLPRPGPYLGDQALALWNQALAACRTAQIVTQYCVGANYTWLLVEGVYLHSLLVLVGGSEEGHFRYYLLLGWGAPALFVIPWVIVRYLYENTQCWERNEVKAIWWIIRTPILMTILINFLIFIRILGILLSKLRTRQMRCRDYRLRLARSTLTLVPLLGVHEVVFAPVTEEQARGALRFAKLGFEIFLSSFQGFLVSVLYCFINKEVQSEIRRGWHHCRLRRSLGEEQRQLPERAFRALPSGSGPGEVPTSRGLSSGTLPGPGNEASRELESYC


Tests used:
[1] = target: T1, human glucose-dependent insulinotropic …; assay: SPA, displacement of [125I]-GIP from hGIPR membranes, 0.1% bacitracin
[2] = target: T2, human GLP-1 receptor (human, UniProt P43220 24-463); assay: SPA, displacement of [125I]-GLP-1 from hGLP-1R membranes, 0.1% bacitracin
T2 construct: whole, on cells; Assayed as crude membranes of stably transfected HEK293 cells; also called hGLP1R; hGLP-1R
Method in brief: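 Binding buffer: 25 mM HEPES pH 7.4, 2.5 mM CaCl₂, 1 mM MgCl₂, 0.1% bacitracin, 0.003% Tween-20, protease inhibitors without EDTA. Four-parameter nonlinear regression; Kᵢ given as geometric mean ± SEM, n = independent replicates run on different days.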

[3] = target: T3, human glucagon receptor (human, UniProt P47871 26-477); assay: SPA, displacement of [125I]-Gcg from hGcgR membranes, 0.1% bacitracin
T3 construct: whole, on cells; Assayed as crude membranes of stably transfected HEK293 cells; also called hGcgR; GcgR
Method: The binding buffer contains 25 mM 4-(2-hydroxyethyl)-1-piperazineethanesulfonic acid (HEPES), pH 7.4, 2.5 mM CaCl₂), 1 mM MgCl₂, 0.1% (w/v) bacitracin (Research Products), 0.003% (w/v) Polyoxyethylenesorbitan monolaurate (TWEEN®-20), and Roche Complete™ Protease Inhibitors without EDTA. […] Plates are sealed and mixed on a plate shaker (setting 6) for 1 minute and read with a PerkinElmer Trilux MicroBeta® scintillation counter after 12 hours of incubation/settling time at room temperature.
Data are analyzed using four-parameter (curve maximum, curve minimum, […], Hill slope) nonlinear regression routines (Genedata Screener, version 12.0.4, Genedata AG, Basal, Switzerland). […] Values for Kᵢ are reported as the geometric mean, with error expressed as the standard error of the mean (SEM) and n is equal to the number of independent replicates (determined in assays performed on different days).

T3 sequence (P47871 26-477): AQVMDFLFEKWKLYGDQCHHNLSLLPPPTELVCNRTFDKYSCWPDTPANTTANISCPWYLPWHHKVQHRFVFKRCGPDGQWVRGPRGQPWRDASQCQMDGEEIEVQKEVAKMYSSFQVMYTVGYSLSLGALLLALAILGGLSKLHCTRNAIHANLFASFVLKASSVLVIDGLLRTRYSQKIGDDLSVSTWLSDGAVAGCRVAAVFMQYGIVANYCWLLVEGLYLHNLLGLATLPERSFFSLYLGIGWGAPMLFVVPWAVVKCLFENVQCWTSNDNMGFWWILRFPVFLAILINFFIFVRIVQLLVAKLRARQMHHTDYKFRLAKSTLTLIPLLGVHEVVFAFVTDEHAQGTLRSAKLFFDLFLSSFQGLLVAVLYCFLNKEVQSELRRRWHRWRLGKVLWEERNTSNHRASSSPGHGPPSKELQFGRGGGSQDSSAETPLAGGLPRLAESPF

Row | Binder | Ki [1] | Ki [2] | Ki [3]
1 | Y[Aib]EGTFISDYSI[αMeL]LDKK([AEEA-AEEA-γGlu-C20 diacid])HQ[Aib]EFVE[4Pal]LLAGGPSSGAPPPS-NH2 (N-terminus assumed; SMILES CC[C@H](C)[C@H](NC(=O)[C@H](Cc1ccccc1)NC(=O)[C@@H](NC(=O)CNC(=O)[C@H](CCC(=O)O)NC(=O)C(C)(C)NC(=O)[C@@H](N)Cc1ccc(O)cc1)[C@@H](C)O)C(=O)N[C@@H](CO)C(=O)N[C@@H](CC(=O)O)C(=O)N[C@@H](Cc1ccc(O)cc1)C(=O)N[C@@H](CO)C(=O)N[C@H](C(=O)N[C@@](C)(CC(C)C)C(=O)N[C@@H](CC(C)C)C(=O)N[C@@H](CC(=O)O)C(=O)N[C@@H](CCCCN)C(=O)N[C@@H](CCCCNC(=O)COCCOCCNC(=O)COCCOCCNC(=O)CC[C@H](NC(=O)CCCCCCCCCCCCCCCCCCC(=O)O)C(=O)O)C(=O)N[C@@H](Cc1c[nH]cn1)C(=O)N[C@@H](CCC(N)=O)C(=O)NC(C)(C)C(=O)N[C@@H](CCC(=O)O)C(=O)N[C@@H](Cc1ccccc1)C(=O)N[C@H](C(=O)N[C@@H](CCC(=O)O)C(=O)N[C@@H](Cc1ccncc1)C(=O)N[C@@H](CC(C)C)C(=O)N[C@@H](CC(C)C)C(=O)N[C@@H](C)C(=O)NCC(=O)NCC(=O)N1CCC[C@H]1C(=O)N[C@@H](CO)C(=O)N[C@@H](CO)C(=O)NCC(=O)N[C@@H](C)C(=O)N1CCC[C@H]1C(=O)N1CCC[C@H]1C(=O)N1CCC[C@H]1C(=O)N[C@@H](CO)C(N)=O)C(C)C)[C@@H](C)CC) [Example 52] | 0.0372 nM | 128 nM | 114 nM
2 | Y[Aib]EGTFISDYSI[αMeL]LDKK([AEEA-AEEA-γGlu-C20 diacid])HQ[Aib]EFVE[4Pal]LLAQGPSSGAPPPS-NH2 (N-terminus assumed; SMILES CC[C@H](C)[C@H](NC(=O)[C@H](Cc1ccccc1)NC(=O)[C@@H](NC(=O)CNC(=O)[C@H](CCC(=O)O)NC(=O)C(C)(C)NC(=O)[C@@H](N)Cc1ccc(O)cc1)[C@@H](C)O)C(=O)N[C@@H](CO)C(=O)N[C@@H](CC(=O)O)C(=O)N[C@@H](Cc1ccc(O)cc1)C(=O)N[C@@H](CO)C(=O)N[C@H](C(=O)N[C@@](C)(CC(C)C)C(=O)N[C@@H](CC(C)C)C(=O)N[C@@H](CC(=O)O)C(=O)N[C@@H](CCCCN)C(=O)N[C@@H](CCCCNC(=O)COCCOCCNC(=O)COCCOCCNC(=O)CC[C@H](NC(=O)CCCCCCCCCCCCCCCCCCC(=O)O)C(=O)O)C(=O)N[C@@H](Cc1c[nH]cn1)C(=O)N[C@@H](CCC(N)=O)C(=O)NC(C)(C)C(=O)N[C@@H](CCC(=O)O)C(=O)N[C@@H](Cc1ccccc1)C(=O)N[C@H](C(=O)N[C@@H](CCC(=O)O)C(=O)N[C@@H](Cc1ccncc1)C(=O)N[C@@H](CC(C)C)C(=O)N[C@@H](CC(C)C)C(=O)N[C@@H](C)C(=O)N[C@@H](CCC(N)=O)C(=O)NCC(=O)N1CCC[C@H]1C(=O)N[C@@H](CO)C(=O)N[C@@H](CO)C(=O)NCC(=O)N[C@@H](C)C(=O)N1CCC[C@H]1C(=O)N1CCC[C@H]1C(=O)N1CCC[C@H]1C(=O)N[C@@H](CO)C(N)=O)C(C)C)[C@@H](C)CC) [Example 57] | 0.0154 nM | 280 nM | 422 nM
3 | Y[Aib]EGTFISDYSI[αMeL]LDKK([AEEA-AEEA-γGlu-C20 diacid])HQ[Aib]EFVE[4Pal]LLATGPSSGAPPPS-NH2 (N-terminus assumed; SMILES CC[C@H](C)[C@H](NC(=O)[C@H](Cc1ccccc1)NC(=O)[C@@H](NC(=O)CNC(=O)[C@H](CCC(=O)O)NC(=O)C(C)(C)NC(=O)[C@@H](N)Cc1ccc(O)cc1)[C@@H](C)O)C(=O)N[C@@H](CO)C(=O)N[C@@H](CC(=O)O)C(=O)N[C@@H](Cc1ccc(O)cc1)C(=O)N[C@@H](CO)C(=O)N[C@H](C(=O)N[C@@](C)(CC(C)C)C(=O)N[C@@H](CC(C)C)C(=O)N[C@@H](CC(=O)O)C(=O)N[C@@H](CCCCN)C(=O)N[C@@H](CCCCNC(=O)COCCOCCNC(=O)COCCOCCNC(=O)CC[C@H](NC(=O)CCCCCCCCCCCCCCCCCCC(=O)O)C(=O)O)C(=O)N[C@@H](Cc1c[nH]cn1)C(=O)N[C@@H](CCC(N)=O)C(=O)NC(C)(C)C(=O)N[C@@H](CCC(=O)O)C(=O)N[C@@H](Cc1ccccc1)C(=O)N[C@H](C(=O)N[C@@H](CCC(=O)O)C(=O)N[C@@H](Cc1ccncc1)C(=O)N[C@@H](CC(C)C)C(=O)N[C@@H](CC(C)C)C(=O)N[C@@H](C)C(=O)N[C@H](C(=O)NCC(=O)N1CCC[C@H]1C(=O)N[C@@H](CO)C(=O)N[C@@H](CO)C(=O)NCC(=O)N[C@@H](C)C(=O)N1CCC[C@H]1C(=O)N1CCC[C@H]1C(=O)N1CCC[C@H]1C(=O)N[C@@H](CO)C(N)=O)[C@@H](C)O)C(C)C)[C@@H](C)CC) [Example 58] | 0.0324 nM | 459 nM | 418 nM
4 | Y[Aib]EGTFISDYSI[αMeL]LDKK([AEEA-AEEA-γGlu-C20 diacid])HQ[Aib]EFVE[4Pal]LLAAGPSSGAPPPS-NH2 (N-terminus assumed; SMILES CC[C@H](C)[C@H](NC(=O)[C@H](Cc1ccccc1)NC(=O)[C@@H](NC(=O)CNC(=O)[C@H](CCC(=O)O)NC(=O)C(C)(C)NC(=O)[C@@H](N)Cc1ccc(O)cc1)[C@@H](C)O)C(=O)N[C@@H](CO)C(=O)N[C@@H](CC(=O)O)C(=O)N[C@@H](Cc1ccc(O)cc1)C(=O)N[C@@H](CO)C(=O)N[C@H](C(=O)N[C@@](C)(CC(C)C)C(=O)N[C@@H](CC(C)C)C(=O)N[C@@H](CC(=O)O)C(=O)N[C@@H](CCCCN)C(=O)N[C@@H](CCCCNC(=O)COCCOCCNC(=O)COCCOCCNC(=O)CC[C@H](NC(=O)CCCCCCCCCCCCCCCCCCC(=O)O)C(=O)O)C(=O)N[C@@H](Cc1c[nH]cn1)C(=O)N[C@@H](CCC(N)=O)C(=O)NC(C)(C)C(=O)N[C@@H](CCC(=O)O)C(=O)N[C@@H](Cc1ccccc1)C(=O)N[C@H](C(=O)N[C@@H](CCC(=O)O)C(=O)N[C@@H](Cc1ccncc1)C(=O)N[C@@H](CC(C)C)C(=O)N[C@@H](CC(C)C)C(=O)N[C@@H](C)C(=O)N[C@@H](C)C(=O)NCC(=O)N1CCC[C@H]1C(=O)N[C@@H](CO)C(=O)N[C@@H](CO)C(=O)NCC(=O)N[C@@H](C)C(=O)N1CCC[C@H]1C(=O)N1CCC[C@H]1C(=O)N1CCC[C@H]1C(=O)N[C@@H](CO)C(N)=O)C(C)C)[C@@H](C)CC) [Example 59] | 0.0148 nM | 109 nM | 230 nM
5 | Y[Aib]EGTFISDYSI[αMeL]LDKK([AEEA-AEEA-γGlu-C20 diacid])HQ[Aib]DFVE[4Pal]LLATGPSSGAPPPS-NH2 (N-terminus assumed; SMILES CC[C@H](C)[C@H](NC(=O)[C@H](Cc1ccccc1)NC(=O)[C@@H](NC(=O)CNC(=O)[C@H](CCC(=O)O)NC(=O)C(C)(C)NC(=O)[C@@H](N)Cc1ccc(O)cc1)[C@@H](C)O)C(=O)N[C@@H](CO)C(=O)N[C@@H](CC(=O)O)C(=O)N[C@@H](Cc1ccc(O)cc1)C(=O)N[C@@H](CO)C(=O)N[C@H](C(=O)N[C@@](C)(CC(C)C)C(=O)N[C@@H](CC(C)C)C(=O)N[C@@H](CC(=O)O)C(=O)N[C@@H](CCCCN)C(=O)N[C@@H](CCCCNC(=O)COCCOCCNC(=O)COCCOCCNC(=O)CC[C@H](NC(=O)CCCCCCCCCCCCCCCCCCC(=O)O)C(=O)O)C(=O)N[C@@H](Cc1c[nH]cn1)C(=O)N[C@@H](CCC(N)=O)C(=O)NC(C)(C)C(=O)N[C@@H](CC(=O)O)C(=O)N[C@@H](Cc1ccccc1)C(=O)N[C@H](C(=O)N[C@@H](CCC(=O)O)C(=O)N[C@@H](Cc1ccncc1)C(=O)N[C@@H](CC(C)C)C(=O)N[C@@H](CC(C)C)C(=O)N[C@@H](C)C(=O)N[C@H](C(=O)NCC(=O)N1CCC[C@H]1C(=O)N[C@@H](CO)C(=O)N[C@@H](CO)C(=O)NCC(=O)N[C@@H](C)C(=O)N1CCC[C@H]1C(=O)N1CCC[C@H]1C(=O)N1CCC[C@H]1C(=O)N[C@@H](CO)C(N)=O)[C@@H](C)O)C(C)C)[C@@H](C)CC) [Example 70] | 0.0421 nM | 570 nM | 857 nM
